Laboratory results taken from patent US20140087995A1 (published 2014).
Numbered stars: 1 amine (or outer) side, 2 acyl side, 3 side chain; on linkers, the order of the positions; unused ones are H or OH. Bridge positions count the residues as written; N and C are the ends. Side chains are listed from the residue outwards. Ends that are not written are not given here. * marks the point of attachment. C20 diacid = O=C(O)CCCCCCCCCCCCCCCCCCC(=O)*; γGlu = O=C(O)[C@H](CCC(=O)[*:2])N[*:1]; AEEA = NCCOCCOCC(=O)O

T1: human calcitonin receptor (human, UniProt P30988 25-474)
T1 construct: whole, on cells; also called hCTR; hCT
T1 sequence (looked up): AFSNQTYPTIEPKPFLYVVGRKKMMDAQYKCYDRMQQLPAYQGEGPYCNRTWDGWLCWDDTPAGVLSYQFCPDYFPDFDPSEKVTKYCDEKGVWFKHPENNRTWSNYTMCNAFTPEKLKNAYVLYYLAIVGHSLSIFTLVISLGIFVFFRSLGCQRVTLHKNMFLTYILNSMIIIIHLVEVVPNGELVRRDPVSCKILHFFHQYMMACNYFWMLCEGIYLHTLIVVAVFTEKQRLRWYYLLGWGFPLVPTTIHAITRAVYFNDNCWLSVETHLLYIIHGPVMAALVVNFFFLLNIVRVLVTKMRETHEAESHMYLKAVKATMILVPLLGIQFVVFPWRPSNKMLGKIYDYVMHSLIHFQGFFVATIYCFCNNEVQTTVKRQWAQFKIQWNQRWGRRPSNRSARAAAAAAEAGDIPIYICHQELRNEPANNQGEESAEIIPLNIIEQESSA

B1: N^ε1-[2-[2-[2-[[(4S)-4-carboxy-4-(19-carboxynonadecanoylamino)butanoyl]amino]ethoxy]ethoxy]acetyl]-[Arg17,Pro21,Pro27,Pro29,Pro34]-h-amylin (peptide)
peptide: K([AEEA-γGlu-C20 diacid])CNTATCATQRLANFLRHSSPNFGAIPSPTNVGPNTY-NH2
modifications: disulfide 2-7; N-terminus assumed
SMILES: CC[C@H](C)[C@H](NC(=O)[C@H](C)NC(=O)CNC(=O)[C@H](Cc1ccccc1)NC(=O)[C@H](CC(N)=O)NC(=O)[C@@H]1CCCN1C(=O)[C@H](CO)NC(=O)[C@H](CO)NC(=O)[C@H](Cc1c[nH]cn1)NC(=O)[C@H](CCCNC(=N)N)NC(=O)[C@H](CC(C)C)NC(=O)[C@H](Cc1ccccc1)NC(=O)[C@H](CC(N)=O)NC(=O)[C@H](C)NC(=O)[C@H](CC(C)C)NC(=O)[C@H](CCCNC(=N)N)NC(=O)[C@H](CCC(N)=O)NC(=O)[C@@H](NC(=O)[C@H](C)NC(=O)[C@@H]1CSSC[C@H](NC(=O)[C@@H](N)CCCCNC(=O)COCCOCCNC(=O)CC[C@H](NC(=O)CCCCCCCCCCCCCCCCCCC(=O)O)C(=O)O)C(=O)N[C@@H](CC(N)=O)C(=O)N[C@@H]([C@@H](C)O)C(=O)N[C@@H](C)C(=O)N[C@@H]([C@@H](C)O)C(=O)N1)[C@@H](C)O)C(=O)N1CCC[C@H]1C(=O)N[C@@H](CO)C(=O)N1CCC[C@H]1C(=O)N[C@H](C(=O)N[C@@H](CC(N)=O)C(=O)N[C@H](C(=O)NCC(=O)N1CCC[C@H]1C(=O)N[C@@H](CC(N)=O)C(=O)N[C@H](C(=O)N[C@@H](Cc1ccc(O)cc1)C(N)=O)[C@@H](C)O)C(C)C)[C@@H](C)O
notes: also called compound 56
B2: N^ε1-[2-[2-[2-[[(4S)-4-carboxy-4-(19-carboxynonadecanoylamino)butanoyl]amino]ethoxy]ethoxy]acetyl]-[Arg17,Pro21,Pro27,Pro31,His35]-h-amylin (peptide)
peptide: K([AEEA-γGlu-C20 diacid])CNTATCATQRLANFLRHSSPNFGAIPSSTPVGSHTY-NH2
modifications: disulfide 2-7; N-terminus assumed
SMILES: CC[C@H](C)[C@H](NC(=O)[C@H](C)NC(=O)CNC(=O)[C@H](Cc1ccccc1)NC(=O)[C@H](CC(N)=O)NC(=O)[C@@H]1CCCN1C(=O)[C@H](CO)NC(=O)[C@H](CO)NC(=O)[C@H](Cc1c[nH]cn1)NC(=O)[C@H](CCCNC(=N)N)NC(=O)[C@H](CC(C)C)NC(=O)[C@H](Cc1ccccc1)NC(=O)[C@H](CC(N)=O)NC(=O)[C@H](C)NC(=O)[C@H](CC(C)C)NC(=O)[C@H](CCCNC(=N)N)NC(=O)[C@H](CCC(N)=O)NC(=O)[C@@H](NC(=O)[C@H](C)NC(=O)[C@@H]1CSSC[C@H](NC(=O)[C@@H](N)CCCCNC(=O)COCCOCCNC(=O)CC[C@H](NC(=O)CCCCCCCCCCCCCCCCCCC(=O)O)C(=O)O)C(=O)N[C@@H](CC(N)=O)C(=O)N[C@@H]([C@@H](C)O)C(=O)N[C@@H](C)C(=O)N[C@@H]([C@@H](C)O)C(=O)N1)[C@@H](C)O)C(=O)N1CCC[C@H]1C(=O)N[C@@H](CO)C(=O)N[C@@H](CO)C(=O)N[C@H](C(=O)N1CCC[C@H]1C(=O)N[C@H](C(=O)NCC(=O)N[C@@H](CO)C(=O)N[C@@H](Cc1c[nH]cn1)C(=O)N[C@H](C(=O)N[C@@H](Cc1ccc(O)cc1)C(N)=O)[C@@H](C)O)C(C)C)[C@@H](C)O
notes: also called compound 57
B3: N^ε1-[2-[2-[2-[[(4S)-4-carboxy-4-(19-carboxynonadecanoylamino)butanoyl]amino]ethoxy]ethoxy]acetyl]-[Gly14,Arg17,Pro21,Pro27,Pro31]-h-amylin (peptide)
peptide: K([AEEA-γGlu-C20 diacid])CNTATCATQRLAGFLRHSSPNFGAIPSSTPVGSNTY-NH2
modifications: disulfide 2-7; N-terminus assumed
SMILES: CC[C@H](C)[C@H](NC(=O)[C@H](C)NC(=O)CNC(=O)[C@H](Cc1ccccc1)NC(=O)[C@H](CC(N)=O)NC(=O)[C@@H]1CCCN1C(=O)[C@H](CO)NC(=O)[C@H](CO)NC(=O)[C@H](Cc1c[nH]cn1)NC(=O)[C@H](CCCNC(=N)N)NC(=O)[C@H](CC(C)C)NC(=O)[C@H](Cc1ccccc1)NC(=O)CNC(=O)[C@H](C)NC(=O)[C@H](CC(C)C)NC(=O)[C@H](CCCNC(=N)N)NC(=O)[C@H](CCC(N)=O)NC(=O)[C@@H](NC(=O)[C@H](C)NC(=O)[C@@H]1CSSC[C@H](NC(=O)[C@@H](N)CCCCNC(=O)COCCOCCNC(=O)CC[C@H](NC(=O)CCCCCCCCCCCCCCCCCCC(=O)O)C(=O)O)C(=O)N[C@@H](CC(N)=O)C(=O)N[C@@H]([C@@H](C)O)C(=O)N[C@@H](C)C(=O)N[C@@H]([C@@H](C)O)C(=O)N1)[C@@H](C)O)C(=O)N1CCC[C@H]1C(=O)N[C@@H](CO)C(=O)N[C@@H](CO)C(=O)N[C@H](C(=O)N1CCC[C@H]1C(=O)N[C@H](C(=O)NCC(=O)N[C@@H](CO)C(=O)N[C@@H](CC(N)=O)C(=O)N[C@H](C(=O)N[C@@H](Cc1ccc(O)cc1)C(N)=O)[C@@H](C)O)C(C)C)[C@@H](C)O
notes: also called compound 71
B4: N^ε1-[2-[2-[2-[[(4S)-4-carboxy-4-(19-carboxynonadecanoylamino)butanoyl]amino]ethoxy]ethoxy]acetyl]-[Arg17,Pro21,Pro27,Pro34]-h-amylin (peptide)
peptide: K([AEEA-γGlu-C20 diacid])CNTATCATQRLANFLRHSSPNFGAIPSSTNVGPNTY-NH2
modifications: disulfide 2-7; N-terminus assumed
SMILES: CC[C@H](C)[C@H](NC(=O)[C@H](C)NC(=O)CNC(=O)[C@H](Cc1ccccc1)NC(=O)[C@H](CC(N)=O)NC(=O)[C@@H]1CCCN1C(=O)[C@H](CO)NC(=O)[C@H](CO)NC(=O)[C@H](Cc1c[nH]cn1)NC(=O)[C@H](CCCNC(=N)N)NC(=O)[C@H](CC(C)C)NC(=O)[C@H](Cc1ccccc1)NC(=O)[C@H](CC(N)=O)NC(=O)[C@H](C)NC(=O)[C@H](CC(C)C)NC(=O)[C@H](CCCNC(=N)N)NC(=O)[C@H](CCC(N)=O)NC(=O)[C@@H](NC(=O)[C@H](C)NC(=O)[C@@H]1CSSC[C@H](NC(=O)[C@@H](N)CCCCNC(=O)COCCOCCNC(=O)CC[C@H](NC(=O)CCCCCCCCCCCCCCCCCCC(=O)O)C(=O)O)C(=O)N[C@@H](CC(N)=O)C(=O)N[C@@H]([C@@H](C)O)C(=O)N[C@@H](C)C(=O)N[C@@H]([C@@H](C)O)C(=O)N1)[C@@H](C)O)C(=O)N1CCC[C@H]1C(=O)N[C@@H](CO)C(=O)N[C@@H](CO)C(=O)N[C@H](C(=O)N[C@@H](CC(N)=O)C(=O)N[C@H](C(=O)NCC(=O)N1CCC[C@H]1C(=O)N[C@@H](CC(N)=O)C(=O)N[C@H](C(=O)N[C@@H](Cc1ccc(O)cc1)C(N)=O)[C@@H](C)O)C(C)C)[C@@H](C)O
notes: also called compound 50
B5: N^ε1-[2-[2-[2-[[(4S)-4-carboxy-4-(19-carboxynonadecanoylamino)butanoyl]amino]ethoxy]ethoxy]acetyl]-[Arg17,Pro21,Pro27,Pro34,His35]-h-amylin (peptide)
peptide: K([AEEA-γGlu-C20 diacid])CNTATCATQRLANFLRHSSPNFGAIPSSTNVGPHTY-NH2
modifications: disulfide 2-7; N-terminus assumed
SMILES: CC[C@H](C)[C@H](NC(=O)[C@H](C)NC(=O)CNC(=O)[C@H](Cc1ccccc1)NC(=O)[C@H](CC(N)=O)NC(=O)[C@@H]1CCCN1C(=O)[C@H](CO)NC(=O)[C@H](CO)NC(=O)[C@H](Cc1c[nH]cn1)NC(=O)[C@H](CCCNC(=N)N)NC(=O)[C@H](CC(C)C)NC(=O)[C@H](Cc1ccccc1)NC(=O)[C@H](CC(N)=O)NC(=O)[C@H](C)NC(=O)[C@H](CC(C)C)NC(=O)[C@H](CCCNC(=N)N)NC(=O)[C@H](CCC(N)=O)NC(=O)[C@@H](NC(=O)[C@H](C)NC(=O)[C@@H]1CSSC[C@H](NC(=O)[C@@H](N)CCCCNC(=O)COCCOCCNC(=O)CC[C@H](NC(=O)CCCCCCCCCCCCCCCCCCC(=O)O)C(=O)O)C(=O)N[C@@H](CC(N)=O)C(=O)N[C@@H]([C@@H](C)O)C(=O)N[C@@H](C)C(=O)N[C@@H]([C@@H](C)O)C(=O)N1)[C@@H](C)O)C(=O)N1CCC[C@H]1C(=O)N[C@@H](CO)C(=O)N[C@@H](CO)C(=O)N[C@H](C(=O)N[C@@H](CC(N)=O)C(=O)N[C@H](C(=O)NCC(=O)N1CCC[C@H]1C(=O)N[C@@H](Cc1c[nH]cn1)C(=O)N[C@H](C(=O)N[C@@H](Cc1ccc(O)cc1)C(N)=O)[C@@H](C)O)C(C)C)[C@@H](C)O
notes: also called compound 58
B6: N^ε1-[2-[2-[2-[[(4S)-4-carboxy-4-(19-carboxynonadecanoylamino)butanoyl]amino]ethoxy]ethoxy]acetyl]-[His14,Arg17,Pro21,Pro27,Pro31]-h-amylin (peptide)
peptide: K([AEEA-γGlu-C20 diacid])CNTATCATQRLAHFLRHSSPNFGAIPSSTPVGSNTY-NH2
modifications: disulfide 2-7; N-terminus assumed
SMILES: CC[C@H](C)[C@H](NC(=O)[C@H](C)NC(=O)CNC(=O)[C@H](Cc1ccccc1)NC(=O)[C@H](CC(N)=O)NC(=O)[C@@H]1CCCN1C(=O)[C@H](CO)NC(=O)[C@H](CO)NC(=O)[C@H](Cc1c[nH]cn1)NC(=O)[C@H](CCCNC(=N)N)NC(=O)[C@H](CC(C)C)NC(=O)[C@H](Cc1ccccc1)NC(=O)[C@H](Cc1c[nH]cn1)NC(=O)[C@H](C)NC(=O)[C@H](CC(C)C)NC(=O)[C@H](CCCNC(=N)N)NC(=O)[C@H](CCC(N)=O)NC(=O)[C@@H](NC(=O)[C@H](C)NC(=O)[C@@H]1CSSC[C@H](NC(=O)[C@@H](N)CCCCNC(=O)COCCOCCNC(=O)CC[C@H](NC(=O)CCCCCCCCCCCCCCCCCCC(=O)O)C(=O)O)C(=O)N[C@@H](CC(N)=O)C(=O)N[C@@H]([C@@H](C)O)C(=O)N[C@@H](C)C(=O)N[C@@H]([C@@H](C)O)C(=O)N1)[C@@H](C)O)C(=O)N1CCC[C@H]1C(=O)N[C@@H](CO)C(=O)N[C@@H](CO)C(=O)N[C@H](C(=O)N1CCC[C@H]1C(=O)N[C@H](C(=O)NCC(=O)N[C@@H](CO)C(=O)N[C@@H](CC(N)=O)C(=O)N[C@H](C(=O)N[C@@H](Cc1ccc(O)cc1)C(N)=O)[C@@H](C)O)C(C)C)[C@@H](C)O
notes: also called compound 61

molecular target: T1, human calcitonin receptor; test: SPA competition with 125I-calcitonin, membranes of BHK hCTR cells (Assay VII)
Experimental: Membranes were prepared in the following way; the cells were rinsed with PBS and incubated with Versene for approximately 5 min before harvesting. The cells were flushed with PBS and the cell-suspension was centrifuged for 5 min at 1000 rpm. Cells were homogenized (Ultrathurrax) in a buffer containing 20 mM Na-HEPES and 10 mM EDTA (pH 7.4) and centrifuged at 20.000 rpm for 15 min. The resulting pellet was resuspended, homogenized and centrifuged (20.000 rpm, 15 min) in a buffer containing 20 mM Na-HEPES and 0.1 mM EDTA (pH 7.4, buffer 2). The resulting pellet was resuspended in buffer 2 and protein concentration was measured (BCA protein Assay, Pierce). The homogenate was kept cold during the whole procedure. The membranes were kept at −80° C. until use. Assay was performed in a 384 well Optiplate (PerkinElmer) in a total volume of 40 ul. Membranes were mixed with SPA beads. Final concentration of membranes 35 ng/μL final and Final concentration of SPA beads was 0.05 mg/well. Test-compounds were dissolved in DMSO and further diluted in assay buffer (50 mM Hepes, pH 7.4, 1 mM CaCl2, 5 mM MgCl₂, 0.1% OA and 0.02% Tween20). […] The final mixture was incubated for 120 min with shaking at 400 rpm at 25° C. prior to centrifugation (1500 rpm, 10 min). Samples were analyzed on TopCounter™ (Packard). The […] was calculated using (one site binding competition analysis) GraphPad Prism5 as a measure of receptor affinity.

Row | IC50 [nM] | Binder
1 | 2.09 | B1
2 | 15.3 | B2
3 | 1.53 | B3
4 | 1.38 | B4
5 | 9.63 | B5
6 | 8.11 | B6
